For the experiment, the target named is His-importin α (human, UniProt P52292 1-529). In words: ELISA; solid phase binding assay: Maxisorp microtiter plates coated with 25 ng of Tpr or C-Tpr; increasing concentrations of the soluble protein; bound protein detected with primary antibodies and horseradish peroxidase-conjugated secondary antibodies (TMB); apparent Kd from B = Bmax x Y/(Kd + Y); CRM1, NES and RanGTP at equimolar concentrations. The settings on record: both partners purified. Background: ELISA stands for enzyme-linked immunosorbent assay.

B1: C-terminal domain of Tpr (C-Tpr, residues 1626-2348) (domain or fragment)
chain: EQRDEPQEPSNKVPEQQRQITLKTTPASGERGIASTSDPPTANIKPTPVVSTPSKVTAAAMAGNKSTPRASIRPMVTPATVTNPTTTPTATVMPTTQVESQEAMQSEGPVEHVPVFGSTSGSVRSTSPNVQPSISQPILTVQQQTQATAFVQPTQQSHPQIEPANQELSSNIVEVVQSSPVERPSTSTAVFGTVSATPSSSLPKRTREEEEDSTIEASDQVSDDTVEMPLPKKLKSVTPVGTEEEVMAEESTDGEVETQVYNQDSQDSIGEGVTQGDYTPMEDSEETSQSLQIDLGPLQSDQQTTTSSQDGQGKGDDVIVIDSDDEEEDDDENDGEHEDYEEDEEDDDDDEDDTGMGDEGEDSNEGTGSADGNDGYEADDAEGGDGTDPGTETEESMGGGEGNHRAADSQNSGEGNTGAAESSFSQEVSREQQPSSASERQAPRAPQSPRRPPHPLPPRLTIHAPPQELGPPVQRIQMTRRQSVGRGLQLTPGIGGMQQHFFDDEDRTVPSTPTLVVPHRTDGFAEAIHSPQVAGVPRFRFGPPEDMPQTSSSHSDLGQLASQGGLGMYETPLFLAHEEESGGRSVPTTPLQVAAPVTVFTESTTSDASEHASQSVPMVTTSTGTLSTTNETATGDDGDEVFVEAESEGISSEAGLEIDSQQEEEPVQASDESDLPSTSQDPPSSSSVDTSSSQPKPFRRVRLQTTLRQGVRGRQFNRQRGVS
As for B1, the Kd turned out to be 21.5 nM.
